Measurements as given in patent US7939292B2, “Modified heparinase III and methods of sequencing therewith” (Massachusetts Institute of Technology, priority 2000, dated 2011).

Experiments:
B16BL6 melanoma [1] = assay: Histological examination of tumor samples (apoptosis, TdT labeling); type: in vivo, mice
Experimental: Immunohistochemistry was done as described (Parangi et al., 1996; O'Reilly et al., 1994) with minor modifications. Briefly, tumor tissues were fixed in either 4% (vol/vol) formaldehyde overnight for von Willebrand factor (vWF) staining and terminal deoxynucleotide transferase (TdT) labeling or in Glyo-Fixx solution overnight for Ki-67 nuclear antigen staining. Tissues were embedded in paraffin according to standard histological procedures. For vWF staining, sections (5 μm thick) were incubated with 0.2 N HCl for 10 min. autoclaved in a Coplin jar immersed with Target retrieval Solution (Dako) for 15 min. and permeabilized with 2 μg/ml proteinase K at 37° C. for 15 min. Sections were incubated with rabbit anti-human vWF antibody coupled with horseradish peroxidase (HRP) (Dako). Positive staining was detected by substrate reaction with diaminobenzidine. Sections were counterstained with Gill's hematoxylin and mounted in Permount (Fisher). […] Capillary density was determined by counting the number of vWF-positive capillaries per high power field (HPF, ×200). The proliferative and apoptotic indices of tumor cells within areas of viable tumor were estimated from the percentage of cells scored under a light microscope at 400-fold magnification. A minimum of 2000 cells were counted in each animal. # indicates standard error.

B16BL6 cells = assay: Growth in mice of B16BL6 cells after heparinase removal of the HLGAG coat; type: in vivo; conditions: HLGAG coat removed
Source text: There are two possible mechanisms by which heparinase may be acting on tumor cells. For instance, heparinase III treatment of cells may result in cells losing their unique surface HLGAG coat and this directly or indirectly may impinge on their ability to grow or metastasize. On the other hand heparinase III treatment of cells may also result in the generation of distinct HLGAG fragments, and these fragments could then directly or indirectly modulate tumor cell function. It was thought that heparinase III may function though either one of these mechanisms or through some combination of these mechanisms. To investigate the mechanisms of action further, we treated B16BL6 cells with either heparinases I or III, to remove the HLGAG coat on the tumor cell surface.
In further support of this conclusion ex vivo digestion of the HLGAG coat present on tumor cells with either heparinase, followed by centrifugation and resuspension in PBS to remove the enzyme and HLGAG fragments released from the cell surface, prior to in vivo injection results in the cells being functionally identical to controls. Thus the released tumor cell HLGAG fragments appear to play the key role in modulating tumor growth and metastasis.

B16BL6 melanoma cells = assay: Lung metastasis of heparinase treated B16BL6 cells after tail vein injection; type: in vivo, mice; conditions: cells treated 30 min at 37° C. before tail vein injection; 13 days
Experimental: We next investigated the ability of heparinase treated B16BL6 melanoma cells to metastasize to the lungs. B16BL6 cells in log growth phase were briefly trypsinized and resuspended in PBS to a final concentration of 1×10^6 per ml. Prior to injection, cells were treated with either PBS, hep I […] or hep III […] for 30 min. at 37° C. 0.2 ml cell suspensions (2×10^5 cells) were injected slowly via tail vein. Mice were sacrificed 13 days later and lungs were harvested, rinsed with tap water. The number of nodules on lung surface were counted with the assistance of a dissection microscope. * indicates p<0.05 (Mann-Whitney test).

FGFR1 = FGFR1 phosphorylation in B16BL6 tumor samples; design: species or system mice; conditions: mouse, in vivo
Experimental: c. Effect of treatment of tumor with hep I and hep III in FGFR1 activation compared to PBS. Level of phosphorylated FGFR1 in tumor samples was assessed by standard immunoprecipitation followed by Westernblotting with phosphotyrosine specific antibody. Primary B16BL6 tumors were grown and treated as described earlier and at day 15 the tumor was harvested in cold modified RIPA buffer containing enzyme inhibitors and homogenized. The homogenates were past through 25-gauge needle 3 times and centrifuged. The supernatant was adjusted for protein concentration using the Bio-Rad protein assay kit (Bio-Rad). FGFR1 was immunoprecipitated with poly-clonal anti-FGFR1 antibody (Santa Cruz Biotechnology, Inc., CA). Samples were then pelleted, washed, and eluted from the beads by addition of sample buffer and boiled for 3 minutes (Kapila, Y. L., Wang, S. & Johnson, P. W. Mutations in the heparin binding domain of fibronectin in cooperation with the V region induce decreases in pp125(FAK) levels plus proteoglycan-mediated apoptosis via caspases. J Biol Chem 274, 30906-13 (1999).). After electrophoresis, the gel was transferred to nitrocellulose membrane by standard methods. The immunoblot was probed with phosphotyrosine specific antibody conjugated to HRP (RC20; Transduction Laboratories, Lexington, Ky.) and developed with SuperSignal West Pico Chemiluminescent substrate. […]

B16BL6 melanoma [2] = assay: Primary tumor growth of B16BL6 melanoma in mice treated with heparinases; type: in vivo; conditions: 0.5 mg/kg/day
Source text: Heparinases I and III, which have very distinct substrate specificities for cleaving HLGAGs, were employed as tools to investigate the role of HLGAGs in tumor growth and metastasis. While heparinase I cleaves at the highly sulfated regions of HLGAGs, heparinase III only cleaves at the under-sulfated regions of the polysaccharide chain, thereby rendering these enzymes powerful tools to investigate in vivo and in vitro roles of HLGAGs, in development, morphogenesis, angiogenesis etc. To examine the roles of HLGAGs in tumor growth and metastasis, we used B16BL6 melanoma as a model system and treated tumor-bearing mice with either heparinases I or III to investigate both primary tumor growth as well as tumor metastasis. Consistent with the current paradigm, heparinase I accelerated tumor growth (FIG. 8). At a dosage of 0.5 mg/kg/day of heparinase I, tumor growth was increased by about 39%. […] Inhibition of primary tumor growth by heparinase III was first observed at 2 mg/kg per day. Tumor growth was inhibited by 73% at 12 mg/kg per day, the maximum dosage tested in the study (FIG. 8).
Mice, 15 days after tumor implantation with B16BL6 melanoma, were examined. 4×10^5 log growth phase B16BL6 melanoma cells in 0.1 ml PBS were injected to the flank of C57BL/6 mice on day 1. Daily injection of 0.1 ml of PBS, heat inactivated hep III or active heparinase III (2 mg/ml, recombinantly expressed, purified, buffer exchanged with PBS, and concentrated) started at the day 4 and continued throughout the experiment. At day 7, osmotic pumps (100 μl capacity delivering at 0.5 μl per hour) containing PBS or 3 mg/ml hep III were implanted subcutaneously at a place remote from the tumor site. Mice were sacrificed at day 15.
FIG. 8 depicts the tumor volume of the tumors isolated from the mice described above. Tumor volume was measured daily after day 7 with a caliper and calculated with the formula [volume=0.52×(width)^2×(length)].

Akt = Akt activation in B16BL6 tumor; design: species or system mice; conditions: mouse, in vivo
Experimental: f. Effect of heparinase treatment on Akt activation. The primary tumor was treated and processed as described above. Akt antibody and phospho-Akt antibody from New England Biolabs were used to probe the immunoblot.

Erk-1, 2 = Erk-1, 2 activation in FGF2 stimulated B16BL6 cells (immunoblot); type: cell-based; conditions: enzyme 200 nM 30 min before 50 ng/ml FGF2
Experimental: a. Methods: B16BL6 cells in 10 cm culture dishes were serum starved for 48 hours before stimulation with 50 ng/ml FGF2. Cells were stimulated for 20 minutes before whole cell lysates were prepared with 1 ml modified RIPA buffer containing various enzyme inhibitors (50 mM Tris-HCl, pH 7.4, 1% NP-40, 0.25% Na-deoxycholate, 150 mM NaCl, 1 mM EDTA, 1 mM PMSF, 1 μg/ml aprotinin, leupeptin, and pepstatin, 1 mM activated Na3VO4, 1 mM NaF). Protein concentration in the lysate was determined using the Bio-Rad protein assay kit (BioRad) and adjusted accordingly for electrophoresis analysis. For the heparinase treated groups, cells were treated with either hep I or hep III (200 nM) for 30 min at 37° C. prior to addition of FGF2. The immunoblot was probed with anti-Erk-1, 2 or anti-phospho-Erk-1, 2 antibody (New England Biolabs; MA) and detected by anti-rabbit IgG conjugated to HRP using SuperSignal West Pico Chemiluminescent substrate (Pierce, Ill.).

B1: heparinase I: HLGAG degrading enzyme that cleaves at the highly sulfated regions of HLGAGs (protein, UniProt Q05819 22-384, looked up)
Heparin lyase I: QQKKSGNIPYRVNVQADSAKQKAIIDNKWVAVGINKPYALQYDDKLRFNGKPSYRFELKAEDNSLEGYAAGETKGRTELSYSYATTNDFKKFPPSVYQNAQKLKTVYHYGKGICEQGSSRSYTFSVYIPSSFPDNATTIFAQWHGAPSRTLVATPEGEIKTLSIEEFLALYDRMIFKKNIAHDKVEKKDKDGKITYVAGKPNGWKVEQGGYPTLAFGFSKGYFYIKANSDRQWLTDKADRNNANPENSEVMKPYSSEYKTSTIAYKMPFAQFPKDCWITFDVAIDWTKYGKEANTILKPGKLDVMMTYTKNKKPQKAHIVNQQEILIGRNDDDGYYFKFGIYRVGNSTVPVTYNLSGYSETAR
apoptosis in tumor samples, enzyme treated tumors (B16BL6 melanoma [1]): reduced apoptosis
ability of treated B16BL6 cells to grow in mice compared to untreated cells (B16BL6 cells): no effect
ability of treated B16BL6 cells to metastasize to the lungs compared to PBS treated cells (B16BL6 melanoma cells): marginally effected, if any
phosphorylation of FGFR1 in primary tumor (FGFR1): opposite effect on the phosphorylation of FGFR1
increase of tumor growth (B16BL6 melanoma [2]): about 39%
activation of Akt in tumor (Akt): no change in activation of Akt
Erk-1, 2 activation upon FGF2 stimulation (Erk-1, 2): increased Erk-1, 2 activation
